What is called Km is the substrate concentration at which the rate is half of its maximum. The term kcat denotes the maximal rate divided by the concentration of active sites. A word on the kcat/Km: it is the second-order rate constant that governs catalysis at low substrate concentration.

Substrate in the data set: Nc1ncnc2c1ncn2[C@@H]1O[C@H](COP(=O)(O)OP(=O)(O)OP(=O)(O)O)[C@@H](O)[C@H]1O
The data set can be described thus: purified protein. The settings on record: varied substrate not named in table (text: substrates ATP and AMP).

B1: AKeco (Escherichia coli K-12; K47A) (protein)
chain: MRIILLGAPGAGKGTQAQFIMEKYGIPQISTGDMLRAAVKSGSELGAQAKDIMDAGKLVTDELVIALVKERIAQEDCRNGFLLDGFPRTIPQADAMKEAGINVDYVLEFDVPDELIVDRIVGRRVHAPSGRVYHVKFNPPKVEGKDDVTGEELTTRKDDQEETVRKRLVEYHQMTAPLIGYYSKEAEAGNTKYAKVDGTKPVAEVRADLEKILG
For the protein B1, the Km worked out at 116 ± 8 µM, the kcat was found to be 464 s⁻¹ and the specificity constant (kcat/Km) came out at 4e+06 M⁻¹ s⁻¹.
